Laboratory results published in paper PMC6205950, “4-Chlorophenol Oxidation Depends on the Activation of an AraC-Type Transcriptional Regulator, CphR, in Rhodococcus sp. Strain YH-5B” (Frontiers in Microbiology, 2018).

What was measured:
Assay in all cases: purified protein
Oc1ccc(Cl)cc1 = details: 200 μM NADH, 25 μM FAD, 50 mM phosphate pH 7.5, text prints 8.7 ± 1.1
O=[N+]([O-])c1cccc(O)c1 = details: 200 μM NADH, 25 μM FAD, 50 mM phosphate pH 7.5
Oc1ccccc1 = details: 200 μM NADH, 25 μM FAD, 50 mM phosphate pH 7.5

## two-component 4-CP monooxygenase (H6-CphA1 and H6-CphA2) (Rhodococcus sp. (in: high G+C Gram-positive bacteria))
Oc1ccc(Cl)cc1
  Km: 8.7 ± 1.2 µM
  kcat: 0.0103 ± 0.00067 s⁻¹
O=[N+]([O-])c1cccc(O)c1
  Km: 63.2 ± 7.7 µM
Oc1ccccc1
  Km: 9.6 ± 0.9 µM
